Test results from patent US20040086946A1, “Methods of isolation of active compounds and activated targets” (priority 2002, published 2004).
No end group written: not given here.

Legend:
FcR-MC4R = biological target: T1, FcR-MC4R (Homo sapiens, UniProt P12314+P32245); assay: Inhibition by AGRP of FcR-MC4R activation, CRE-luciferase reporter; type: cell-based
T1 construct: extracellular domain (residues 1-292, with its own signal peptide) of human Fc-gammaR1 = CD64 (NM_000566); expressed in transfected cells; host or cells: HEK293
T1 sequence (P12314+P32245 fused): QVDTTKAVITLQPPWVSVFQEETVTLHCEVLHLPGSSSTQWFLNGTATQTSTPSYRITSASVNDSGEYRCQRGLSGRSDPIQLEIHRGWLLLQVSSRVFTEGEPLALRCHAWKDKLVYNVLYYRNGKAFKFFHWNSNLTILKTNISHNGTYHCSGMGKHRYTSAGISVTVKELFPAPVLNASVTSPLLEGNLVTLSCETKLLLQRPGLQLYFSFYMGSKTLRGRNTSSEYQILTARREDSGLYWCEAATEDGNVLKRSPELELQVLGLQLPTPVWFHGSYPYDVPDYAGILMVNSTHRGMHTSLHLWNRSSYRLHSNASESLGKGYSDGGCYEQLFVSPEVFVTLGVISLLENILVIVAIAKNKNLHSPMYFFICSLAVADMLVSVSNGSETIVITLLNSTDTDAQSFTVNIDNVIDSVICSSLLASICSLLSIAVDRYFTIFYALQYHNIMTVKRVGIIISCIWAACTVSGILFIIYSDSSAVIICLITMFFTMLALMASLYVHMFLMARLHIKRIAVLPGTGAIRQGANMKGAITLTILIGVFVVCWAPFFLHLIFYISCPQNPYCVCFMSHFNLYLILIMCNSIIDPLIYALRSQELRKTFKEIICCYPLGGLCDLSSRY
Method: Activation of FcR-MC4R was assayed 6 hours after compound addition using a co-transfected CRE-luciferase construct (pCRE-Luc; Stratagene) and measuring luminescence after lysis and addition of the luciferase substrate (Tropix Luciferase Assay Kit).

[1] = biological target: FcR-MC4R fusion protein (human); assay: cell-based or functional assay
Sequence of FcR-MC4R fusion protein (human) (P12314 other isoform, or with tags, fused parts or gaps, form in doubt): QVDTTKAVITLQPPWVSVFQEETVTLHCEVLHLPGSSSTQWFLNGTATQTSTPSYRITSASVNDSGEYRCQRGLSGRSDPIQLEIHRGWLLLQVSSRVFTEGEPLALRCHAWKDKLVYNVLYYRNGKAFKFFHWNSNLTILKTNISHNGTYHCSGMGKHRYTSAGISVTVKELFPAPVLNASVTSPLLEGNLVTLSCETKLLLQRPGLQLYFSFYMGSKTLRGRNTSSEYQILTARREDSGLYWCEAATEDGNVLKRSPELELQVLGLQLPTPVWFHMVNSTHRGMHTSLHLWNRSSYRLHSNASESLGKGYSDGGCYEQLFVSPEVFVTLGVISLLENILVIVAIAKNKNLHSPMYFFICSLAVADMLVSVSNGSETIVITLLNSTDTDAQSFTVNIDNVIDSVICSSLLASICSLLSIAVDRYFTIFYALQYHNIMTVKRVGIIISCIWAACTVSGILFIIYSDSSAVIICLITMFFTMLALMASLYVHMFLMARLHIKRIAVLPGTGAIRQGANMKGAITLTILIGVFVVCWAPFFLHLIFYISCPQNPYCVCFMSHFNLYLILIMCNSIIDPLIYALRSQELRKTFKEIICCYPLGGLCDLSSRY

melanocortin receptors = settings: cited from earlier work
scFv-P2Y6 = assay: Activation of scFv-P2Y6 in HEK293 cells, aequorin luminescence; type: cell-based, human; settings: non-anchored agonists
Description: A fusion protein was constructed between a single chain antibody against fluorescein (Boder et al. (2000) Proc. Natl. Acad. Sci. USA 97:10701-5) (docking domain) and the human P2Y6 receptor (GenBank accession number: NP_004145) (active domain). The target fusion protein, termed scFv-P2Y6, was co-transfected with the calcium-sensitive luminescent protein aequorin into HEK293 cells. After two days, the transfected cells were pre-loaded for two hours with the aequorin substrate coelenterazine (Molecular Probes) and then various amounts of UDP, UTP or ATP were added immediately followed by measurement of luminescence (FIG. 5A). The activation profile of these three agonists on the fusion protein closely mimicked their activation of the unfused P2Y6 receptor (not shown). […] In contrast to ATP alone, an anchored compound, a fluorescein-ATP conjugate (FITC-ATP; Perkin-Elmer), was able to activate the scFv-P2Y6 receptor at low concentrations (FIG. 5B) with a half-maximal stimulation occurring at about 10 nM.

[2] = system: Alpha1-mc4r, Alpha2-MC4R, OGH-MC4R and HCG-MC4R; assay: Glycoprotein hormone subunit-based extracellular 2-hybrid screen, CRE-luciferase reporter in HEK293 cells; type: cell-based; settings: relative to no ligand control; two days after transfection
Sequence of Alpha1-mc4r, Alpha2-MC4R, OGH-MC4R and HCG-MC4R (P32245 whole entry): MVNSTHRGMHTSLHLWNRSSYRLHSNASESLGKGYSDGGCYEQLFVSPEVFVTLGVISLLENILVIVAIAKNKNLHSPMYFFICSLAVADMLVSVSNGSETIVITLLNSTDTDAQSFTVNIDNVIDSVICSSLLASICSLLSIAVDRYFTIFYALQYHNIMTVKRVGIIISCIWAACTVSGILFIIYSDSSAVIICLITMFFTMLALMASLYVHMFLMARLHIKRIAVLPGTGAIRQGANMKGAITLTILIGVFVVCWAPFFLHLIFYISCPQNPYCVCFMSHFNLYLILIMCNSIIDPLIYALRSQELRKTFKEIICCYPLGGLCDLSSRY
Method: Signal sequences were included at the beginning of each construct.
Two days after transfection, the activity of the target fusion protein was measured by assaying luciferase activity as relative light units (Y axis, FIG. 7) on a luminometer.

[3] = biological target: FcR-MC4R fusion protein (human); assay: cell-based or functional assay; remark: listed apart in the source

agouti-related protein (SSRRCVRLHESCLGQQVPCCDPCATCYCRFFNAFCYCRKLGTAMNPCSRT; UniProt O00253 83-132, looked up) [AGRP, known antagonist of the MC4 receptor]
effect of increasing amounts of inhibitor on stimulation by HFRW-Fc (FcR-MC4R; FcR-MC4R activated with anchored agonist HFRW-Fc): dramatically reduce the maximal stimulation levels
effect of increasing amounts of inhibitor on α-MSH dose response (FcR-MC4R; FcR-MC4R activated with natural agonist α-MSH): shift the dose response curve of α-MSH progressively to the right

α-MSH-Fc (from UniProt P01189 138-150) (Fc fusion)
amount of compound for half-maximal stimulation of MC4R (CRE-luciferase) [1]: 100 fold less

His Phe Arg Trp [HFRW]
activation of melanocortin receptors (melanocortin receptors): fully activate melanocortin receptors, but only at very high concentrations

O=c1ccn([C@@H]2O[C@H](COP(=O)(O)OP(=O)(O)OP(=O)(O)O)[C@@H](O)[C@H]2O)c(=O)[nH]1 [UTP]
activation of scFv-P2Y6 (relative potency in words) (scFv-P2Y6): required much higher concentrations

O=c1ccn([C@@H]2O[C@H](COP(=O)(O)OP(=O)(O)O)[C@@H](O)[C@H]2O)c(=O)[nH]1 [UDP]
activation of scFv-P2Y6 (relative potency in words) (scFv-P2Y6): most potent activator

Nc1ncnc2c1ncn2[C@@H]1O[C@H](COP(=O)(O)OP(=O)(O)OP(=O)(O)O)[C@@H](O)[C@H]1O [ATP]
activation of scFv-P2Y6 (relative potency in words) (scFv-P2Y6): required much higher concentrations

B1: alpha2: glycoprotein hormone subunit alpha2 as anchor component fused to HFRW via a 13 amino acid spacer (protein)
chain: QEAVIPGCHLHPFNVTVRSDRQGTCQGSHVAQACVGHCESSAFPSRYSVLVASGYRHNITSVSQCCTISGLKKVKVQLQCVGSRREELEIFTARACQCDMCRLSRY
binding between anchor and docking glycoprotein hormone subunits, seen as increased MC4R activity [2]: binds to OGH, hCG, and itself

B2: HFRW-Fc (Fc fusion, part only; not given: Fc and linker, not shown: a dimerising Fc or GST)
chain, part: HFRW-Fc
modifications: also: Fc junction, isotype and linker not given here
half maximal level of the response (activation of MC4R, CRE-luciferase reporter, transiently transfected HEK293 cells) [3]: < 1 nM
